Data reported in patent publication US20230279088A1 (NATIONAL RESEARCH COUNCIL OF CANADA, published 2023).

Molecular target: T1, Aβ1-42 oligomers (Aβ1-42 preparation consisting predominantly of higher oligomers) (UniProt P05067 672-713)
T1 construct: domain: Aβ1-42; Oligomeric aggregate; also called Aβ oligomers; Aβ-oligomer
Assay: ELISA: ABP immobilized on the plate, exposed to Aβ, bound Aβ detected with 6E10 or 4G8
Method: ELISA: Aβ-binding assays were carried out as described by Chakravarthy et al (2013). Maxisorp 96-well ELISA plates (Nunc) were coated with (100-500 ng/well) either free ABP (synthetic) or various FC5-ABP constructs overnight at 4° C. in PBS. The wells were blocked with 1% BSA in TBS-T for 30 min and then incubated with Af31-42 preparations consisting predominantly of either monomer and dimers (Mo) or higher oligomers (010 in TBS-T at RT for 45 min with gentle agitation. Following three TBS-T washes, bound Aβ was detected by incubating HRP-conjugated Aβ-specific antibody (6E10 or 4G8) for 90 min at RT in TBS-T. The bound antibody was detected with SureBlueTM TMB reagent kit (KPL) by colorimetric measurement at 450 nm according to manufacturer's instructions.
A Coomassie blue stained gel after separation of FC5 fusion molecules by SDS-PAGE (NR-non-reducing and R-reducing conditions) indicating successful production of recombinant fusion molecule is shown in FIG. 2A. Free or fused ABP was immobilized on ELISA plate by coating samples in phosphate buffered saline (PBS) overnight at 4° C. and exposed to Aβ preparations as described by Chakravarthy et al., 2013. Bound Aβ was detected with Aβ-specific antibody 6E10 or 4G8 (Chakravarthy et al., 2013). […] Bound Aβ was detected with specific antibody as above. […]

T1 sequence (P05067 672-713 limits assumed): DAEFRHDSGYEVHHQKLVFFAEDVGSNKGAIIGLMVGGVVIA

B1: free ABP (synthetic amyloid-binding peptide) (peptide)
peptide: KTFKTRKASAQASLASKDKTPKSKSKKRNSTQLKSRVKNI
notes: also called P4-5 peptide (ABP)
B1: binds.
